Data published in patent US5747453.

Biological target: PTH receptor (rat) (UniProt P25961)
Sequence (P25961 27-591): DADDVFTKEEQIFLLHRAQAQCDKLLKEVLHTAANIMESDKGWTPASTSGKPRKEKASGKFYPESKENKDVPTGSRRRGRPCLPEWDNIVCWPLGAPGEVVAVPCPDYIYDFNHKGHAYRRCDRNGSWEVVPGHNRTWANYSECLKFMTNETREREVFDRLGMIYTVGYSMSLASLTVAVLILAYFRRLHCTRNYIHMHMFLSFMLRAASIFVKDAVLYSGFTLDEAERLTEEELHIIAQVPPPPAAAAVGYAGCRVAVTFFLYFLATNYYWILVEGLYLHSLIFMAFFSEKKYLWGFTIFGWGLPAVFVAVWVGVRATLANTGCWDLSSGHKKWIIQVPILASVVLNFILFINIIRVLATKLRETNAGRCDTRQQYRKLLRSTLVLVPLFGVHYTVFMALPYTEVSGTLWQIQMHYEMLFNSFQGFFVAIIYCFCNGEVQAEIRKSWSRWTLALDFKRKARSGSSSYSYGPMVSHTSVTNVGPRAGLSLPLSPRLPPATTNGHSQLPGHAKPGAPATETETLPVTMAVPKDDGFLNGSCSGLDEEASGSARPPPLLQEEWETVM

Sequence of PTH analog 1 (1-35) (ligand) (peptide): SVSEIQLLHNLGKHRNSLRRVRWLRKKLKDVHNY

cAMP concentration (adenylate cyclase stimulation) in UMR106 cells, scintillation proximity assay | Substance
4.4 nM | Synthetic PTH having the wild-type sequence (ligand)
0.9 nM | PTH analog 1 (1-35) (ligand)
